Data taken from PMC3554691, “Systematic Functional Comparative Analysis of Four Single-Stranded DNA-Binding Proteins and Their Affection on Viral RNA Metabolism” (PLoS ONE, 2013).
Blank lines part the entries; values can stand above or below the molecule they belong to.

Columns and labels:
[1] = molecular target: SSB protein from Sulfolobus Solfataricus P2 (SSOB) (Sulfolobus Solfataricus P2) (UniProt Q97W73); assay: native gel or EMSA; 5 µg of ssob on non-denaturing gradient polyacrylamide gel, running buffer and gel at pH 7.4, poles reversed, Coomassie stained; self-association
[2] = molecular target: T1, SSB protein from Thermococcus kodakarensis KOD1 (KOD) (Thermococcus kodakarensis KOD1); assay: native gel or EMSA; 5 µg of SSB protein on 3.5–5–12% non-denaturing gradient polyacrylamide gel with NativeMarker, Coomassie stained; self-association; details: both partners purified
T1 chain: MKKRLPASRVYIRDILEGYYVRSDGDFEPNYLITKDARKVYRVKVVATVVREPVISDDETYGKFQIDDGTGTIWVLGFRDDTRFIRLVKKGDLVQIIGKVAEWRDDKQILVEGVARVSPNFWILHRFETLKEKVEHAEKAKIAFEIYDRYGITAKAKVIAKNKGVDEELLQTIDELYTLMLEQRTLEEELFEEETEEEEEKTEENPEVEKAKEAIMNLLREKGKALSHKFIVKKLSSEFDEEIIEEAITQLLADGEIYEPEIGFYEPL

[3] = molecular target: the molecule itself; assay: as above

stoichiometry N [1]: 4
Molecule: SSB protein from Sulfolobus Solfataricus P2 (SSOB) (from UniProt Q97W73 1-148) (natural protein)

stoichiometry N [2]: 2
B1: SSB protein from Thermococcus kodakarensis KOD1 (KOD) (natural protein)
chain: MKKRLPASRVYIRDILEGYYVRSDGDFEPNYLITKDARKVYRVKVVATVVREPVISDDETYGKFQIDDGTGTIWVLGFRDDTRFIRLVKKGDLVQIIGKVAEWRDDKQILVEGVARVSPNFWILHRFETLKEKVEHAEKAKIAFEIYDRYGITAKAKVIAKNKGVDEELLQTIDELYTLMLEQRTLEEELFEEETEEEEEKTEENPEVEKAKEAIMNLLREKGKALSHKFIVKKLSSEFDEEIIEEAITQLLADGEIYEPEIGFYEPL
modifications: N-terminal His tag left out. The locus TK1959 (RPA41, the 41 kDa replication factor A subunit) is inferred from the printed 356 residues and 41.6 kDa; it is not printed in the paper. / N-terminal His

B2: SSB protein from Thermus thermophilus HB8 (TTH) (natural protein, UniProt Q5SLP9 1-263, looked up)
chain: MARGLNRVFLIGALATRPDMRYTPAGLAILDLTLAGQDLLLSDNGGEREVSWYHRVRLLGRQAEMWGDLLDQGQLVFVEGRLEYRQWEREGERRSELQIRADFLDPLDDRGKERAEDSRGQPRLRAALNQVFLMGNLTRDPELRYTPQGTAVARLGLAVNERRQGAEERTHFVEVQAWRDLAEWAAELRKGDGLFVIGRLVNDSWTSSSGERRFQTRVEALRLERPTRGPAQAGGSRSREVQTGGVDIDEGLEDFPPEEELPF
notes: printed length 263 residues, monomer 29.8 kDa; also called TTH SSB protein; source: E. coli BL21 (DE3), purified (70°C heat treatment, Ni2+ Sepharose, dialysis); not shown: His6, N-terminal, kept
stoichiometry N [3]: 2
